Assay results from article PMC8984176, “Tuftsin: A Natural Molecule Against SARS-CoV-2 Infection” (Frontiers in Molecular Biosciences, 2022).

Assays:
[1] = target: recombinant human ACE2 protein (human) (UniProt Q9BYF1); experiment: SPR; Biacore T200; ACE2 or NRP1 amine-coupled on a CM5 chip (about 10,000 RU); tuftsin flowed at gradient concentrations; 25°C, 30 µl/min; 1×PBS, 0.05% Tween 20, 5% dimethyl sulfoxide, pH 7.4; steady state affinity model
[2] = target: recombinant human NRP1 protein (human) (UniProt O14786); experiment: as above

recombinant human ACE2 protein (human), sequence (Q9BYF1 18-740): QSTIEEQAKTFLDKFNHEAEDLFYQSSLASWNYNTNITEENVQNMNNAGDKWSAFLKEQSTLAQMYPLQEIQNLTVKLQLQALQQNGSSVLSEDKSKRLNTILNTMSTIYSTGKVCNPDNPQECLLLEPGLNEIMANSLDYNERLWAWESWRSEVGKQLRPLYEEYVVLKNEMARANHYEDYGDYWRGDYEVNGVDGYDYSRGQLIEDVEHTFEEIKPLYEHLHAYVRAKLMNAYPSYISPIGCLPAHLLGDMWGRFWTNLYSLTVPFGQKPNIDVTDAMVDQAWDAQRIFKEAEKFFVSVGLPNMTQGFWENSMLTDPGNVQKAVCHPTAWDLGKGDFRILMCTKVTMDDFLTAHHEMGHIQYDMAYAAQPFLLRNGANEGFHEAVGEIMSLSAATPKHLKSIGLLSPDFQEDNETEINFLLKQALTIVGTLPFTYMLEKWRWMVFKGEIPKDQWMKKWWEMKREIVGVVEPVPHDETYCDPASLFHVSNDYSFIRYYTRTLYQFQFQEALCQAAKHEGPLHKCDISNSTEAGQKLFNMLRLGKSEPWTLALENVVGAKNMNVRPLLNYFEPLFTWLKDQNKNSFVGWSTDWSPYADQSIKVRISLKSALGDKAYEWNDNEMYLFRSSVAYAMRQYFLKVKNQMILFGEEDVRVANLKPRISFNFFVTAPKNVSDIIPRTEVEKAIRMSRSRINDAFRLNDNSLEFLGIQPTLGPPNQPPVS

For tuftsin (peptide), which Kd [1] is on record?
Its Kd is 460 µM.

What about the Kd [2] of the same substance?
Its Kd is 10.7 µM.
